This passage reports Vmax and Km results from patent US6033823A, “Mutated penicillin G acylase genes” (priority 1994, dated 2000).

The target in data set [1] is T1, Alcaligenes faecalis Penicillin G acylase, wild type (α subunit SEQ ID NO:27, β subunit SEQ ID NO:32) (Alcaligenes faecalis, UniProt O34142).
T1 construct: alpha 202 aa, beta 551 aa; likely recombinant, E. coli host
T1 sequence (O34142 27-228): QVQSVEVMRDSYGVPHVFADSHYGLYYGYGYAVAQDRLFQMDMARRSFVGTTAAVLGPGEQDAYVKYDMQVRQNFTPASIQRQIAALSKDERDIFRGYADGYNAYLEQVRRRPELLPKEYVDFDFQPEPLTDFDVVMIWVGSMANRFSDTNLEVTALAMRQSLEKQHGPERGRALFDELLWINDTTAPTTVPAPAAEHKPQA
T1 sequence (O34142 266-816): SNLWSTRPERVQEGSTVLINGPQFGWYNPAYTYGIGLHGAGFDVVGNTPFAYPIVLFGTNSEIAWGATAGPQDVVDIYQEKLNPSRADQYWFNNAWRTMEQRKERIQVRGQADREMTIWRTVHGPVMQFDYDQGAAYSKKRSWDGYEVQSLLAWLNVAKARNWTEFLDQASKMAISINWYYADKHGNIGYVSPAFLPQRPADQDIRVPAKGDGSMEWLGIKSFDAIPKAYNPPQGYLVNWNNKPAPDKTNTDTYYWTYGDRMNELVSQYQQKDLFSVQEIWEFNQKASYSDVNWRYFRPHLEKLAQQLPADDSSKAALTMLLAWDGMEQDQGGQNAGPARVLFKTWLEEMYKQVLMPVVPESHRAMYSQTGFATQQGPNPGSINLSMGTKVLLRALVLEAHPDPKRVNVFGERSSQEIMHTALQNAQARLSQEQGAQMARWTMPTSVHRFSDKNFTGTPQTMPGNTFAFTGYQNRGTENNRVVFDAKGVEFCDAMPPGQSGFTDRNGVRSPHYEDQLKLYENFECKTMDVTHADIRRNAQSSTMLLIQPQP
Kind of data set: Deacylation kinetics and phenylacetic acid product inhibition, wild type PenG acylase. The data set is classed as biochemical. As to conditions: Table 8, wt AF; NIPAB, 0.1 M NaH2PO4, pH 7.5, 25° C. The method, then: In order to determine enzymatic activity the acylases were incubated with substrate at room temperature in buffered solution. In case β-lactamase impurity was expected to be present in the enzyme preparations, 1.0 mM -lactamase inhibitor 6-bromo-penicillanic acid was added to the assay. The reactions were stopped by adding an excess PMSF. For some mutants which were less sensitive to PMSF inhibition, the reactions were stopped by adding 0.5 M HCl or 0.5 M acetic acid until the pH was between 3 and 4. When reactions were subsequently analysed by HPLC, the reactions were stopped by dilution with the correponding elution solvent (see table 1). […]
(§1) The composition of the reaction mixtures was determined by high-performanceliquid chromatography (HPLC)(table 1). Concentrations were determined by using standards of known concentration.
In a continuous assay Penicillin G acylase was assayed spectro-fotometrically with the chromogenic substrate NIPAB [6-nitro-3-phenylacetamido-benzoic acid]. The liberation of 3-amino-6-nitrobenzoic acid was monitored by measuring the extinction at 405 nm in a Kontron 610 kinetic spectrofotometer. […]
Initial rate measurements were performed with excess substrate over the enzyme. Catalytic parameters were derived from least-squares fitting of the measured initial rates plotted for various substrate concentrations according to the Michaelis-Menten equation. […]

Substrate in data set [2]: CC1(C)S[C@@H]2[C@H](NC(=O)COc3ccccc3)C(=O)N2[C@H]1C(=O)O
Kind of data set: Deacylation kinetics, mutant A:F147Y. In kind it is biochemical, Alcaligenes faecalis. As to conditions: other: A:F147Y; 40 mM NaH2PO4, pH 7.5, 37° C.; pH 7.5; 37.0 °C. The method, then:
(§2) In case β-lactamase impurity was expected to be present in the enzyme preparations, 1.0 mM -lactamase inhibitor 6-bromo-penicillanic acid was added to the assay. The reactions were stopped by adding an excess PMSF. For some mutants which were less sensitive to PMSF inhibition, the reactions were stopped by adding 0.5 M HCl or 0.5 M acetic acid until the pH was between 3 and 4. When reactions were subsequently analysed by HPLC, the reactions were stopped by dilution with the correponding elution solvent (see table 1). In addition substrates were incubated under assay conditions in absence of enzyme. If necessary enzyme assays were corrected for non-enzymatic hydrolysis
as §1
(§3) In a continuous assay Penicillin G acylase was assayed spectro-fotometrically with the chromogenic substrate NIPAB [6-nitro-3-phenylacetamido-benzoic acid]. The liberation of 3-amino-6-nitrobenzoic acid was monitored by measuring the extinction at 405 nm in a Kontron 610 kinetic spectrofotometer. […] Initial rate measurements were performed with varying concentration of NIPAB.
(§4) The kinetics of enzymatic hydrolysis of PenG, PenV, CefG were also studied by alkaline titration (0, OlM KOH), using a Radiometer pH-stat. All experiments were carried out in a buffer free medium.
(§5) Initial rate measurements were performed with excess substrate over the enzyme. Catalytic parameters were derived from least-squares fitting of the measured initial rates plotted for various substrate concentrations according to the Michaelis-Menten equation.

Substrate in data set [3]: CC1(C)S[C@@H]2[C@H](NC(=O)[C@H](N)c3ccccc3)C(=O)N2[C@H]1C(=O)O
Nature of the data set: Deacylation kinetics, mutant A:F147Y. In kind it is biochemical, Alcaligenes faecalis. As to conditions: other: A:F147Y; 20 mM NaH2PO4, pH 7.0, 37° C.; pH 7.0; 37.0 °C. How it is done:
as §2, §1, §3, §4, §5

Substrate in data set [4]: O=C(Cc1ccccc1)Nc1ccc([N+](=O)[O-])c(C(=O)O)c1
Kind of data set: Deacylation kinetics, mutant A:F147Y. In kind it is biochemical, Alcaligenes faecalis. The settings on record: other: A:F147Y; 0.1M NaH2PO4, pH 7.5, 25° C.; pH 7.5; 25.0 °C. How it is done: as §2, §1, §3, §4, §5

Substrate in data set [5]: CC1(C)S[C@@H]2[C@H](NC(=O)[C@H](N)c3ccc(O)cc3)C(=O)N2[C@H]1C(=O)O
Kind of data set: Deacylation kinetics, mutant A:F147Y. In kind it is biochemical, Alcaligenes faecalis. The settings on record: other: A:F147Y; 20 mM NaH2PO4, pH 7.0, 37° C.; pH 7.0; 37.0 °C. The method, then: as §2, §1, §3, §4, §5

Substrate in data set [6]: NC(=O)[C@H](N)c1ccccc1
Kind of data set: Deacylation kinetics, mutant A:F147Y. As to conditions: other: A:F147Y; 20 mM NaH2PO4, pH 7.0, 37° C.; pH 7.0; 37.0 °C. The data set is classed as biochemical, Alcaligenes faecalis. How it is done:
as §2, §1, §3, §4, §5

Substrate in data set [7]: CC1(C)S[C@@H]2[C@H](NC(=O)Cc3ccccc3)C(=O)N2[C@H]1C(=O)O
Nature of the data set: Deacylation kinetics, mutant A:F147Y. The settings on record: other: A:F147Y; 40 mM NaH2PO4, pH 7.5, 37° C.; pH 7.5; 37.0 °C. In kind it is biochemical, Alcaligenes faecalis. How it is done:
as §2, §1, §3, §4, §5

Substrate in data set [8]: CC1=C(C(=O)O)N2C(=O)[C@@H](NC(=O)Cc3ccccc3)[C@H]2SC1
Kind of data set: Deacylation kinetics, mutant A:F147Y. In kind it is biochemical, Alcaligenes faecalis. The settings on record: other: A:F147Y; 20 mM NaH2PO4, pH 7.5, 37° C.; pH 7.5; 37.0 °C. How it is done:
as §2, §1, §3, §4, §5

With `O=C(Cc1ccccc1)Nc1ccc([N+](=O)[O-])c(C(=O)O)c1` [NIPAB, 6-nitro-3-phenylacetamido-benzoic acid], in data set [1], the Vmax worked out at 37.0 U/mg.

B1: Alcaligenes faecalis Penicillin G acylase mutant A:F147Y (Alcaligenes faecalis; F173Y) (protein)
chain 1: QVQSVEVMRDSYGVPHVFADSHYGLYYGYGYAVAQDRLFQMDMARRSFVGTTAAVLGPGEQDAYVKYDMQVRQNFTPASIQRQIAALSKDERDIFRGYADGYNAYLEQVRRRPELLPKEYVDFDFQPEPLTDFDVVMIWVGSMANRYSDTNLEVTALAMRQSLEKQHGPERGRALFDELLWINDTTAPTTVPAPAAEHKPQA
chain 2: SNLWSTRPERVQEGSTVLINGPQFGWYNPAYTYGIGLHGAGFDVVGNTPFAYPIVLFGTNSEIAWGATAGPQDVVDIYQEKLNPSRADQYWFNNAWRTMEQRKERIQVRGQADREMTIWRTVHGPVMQFDYDQGAAYSKKRSWDGYEVQSLLAWLNVAKARNWTEFLDQASKMAISINWYYADKHGNIGYVSPAFLPQRPADQDIRVPAKGDGSMEWLGIKSFDAIPKAYNPPQGYLVNWNNKPAPDKTNTDTYYWTYGDRMNELVSQYQQKDLFSVQEIWEFNQKASYSDVNWRYFRPHLEKLAQQLPADDSSKAALTMLLAWDGMEQDQGGQNAGPARVLFKTWLEEMYKQVLMPVVPESHRAMYSQTGFATQQGPNPGSINLSMGTKVLLRALVLEAHPDPKRVNVFGERSSQEIMHTALQNAQARLSQEQGAQMARWTMPTSVHRFSDKNFTGTPQTMPGNTFAFTGYQNRGTENNRVVFDAKGVEFCDAMPPGQSGFTDRNGVRSPHYEDQLKLYENFECKTMDVTHADIRRNAQSSTMLLIQPQP
notes: alpha 202 aa, beta 551 aa; recombinant, E. coli host
Regarding B1, the Km in data set [2] is 51 µM; in data set [3], 2600 µM; in data set [4], 5 µM; in data set [5], 19000 µM; in data set [6], 1700 µM; in data set [7], 4 µM. Further, the Km in data set [8] amounted to 6 µM. Moreover, the Vmax was found to be 0.8 U/mg in data set [2]; 13.6 U/mg in data set [3]; 18.0 U/mg in data set [4]; 0.1 U/mg in data set [5]; 32.7 U/mg in data set [6]; 5.9 U/mg in data set [7]. The Vmax in data set [8] turned out to be 4.0 U/mg.

A word on the Km: it is the concentration of substrate that gives half-maximal velocity.
